According to patent US20160002357A1 (Pfizer, published 2016):
Where “and” joins values, the source holds several entries; their conditions need not be identical. Equal entries are not always repeated.

What was measured:
[1] = molecular target: T1, cynomolgus monkey P-cadherin ECD (cynomolgus monkey); test: SPR
T1 construct: extracellular domain; also called cyno P-cadherin ECD; Cyno P-cadherin

[2] = molecular target: T2, human P-cadherin expressed on the cell surface (human, UniProt P22223 108-829); test: cell-based or functional assay
T2 sequence (P22223 108-829): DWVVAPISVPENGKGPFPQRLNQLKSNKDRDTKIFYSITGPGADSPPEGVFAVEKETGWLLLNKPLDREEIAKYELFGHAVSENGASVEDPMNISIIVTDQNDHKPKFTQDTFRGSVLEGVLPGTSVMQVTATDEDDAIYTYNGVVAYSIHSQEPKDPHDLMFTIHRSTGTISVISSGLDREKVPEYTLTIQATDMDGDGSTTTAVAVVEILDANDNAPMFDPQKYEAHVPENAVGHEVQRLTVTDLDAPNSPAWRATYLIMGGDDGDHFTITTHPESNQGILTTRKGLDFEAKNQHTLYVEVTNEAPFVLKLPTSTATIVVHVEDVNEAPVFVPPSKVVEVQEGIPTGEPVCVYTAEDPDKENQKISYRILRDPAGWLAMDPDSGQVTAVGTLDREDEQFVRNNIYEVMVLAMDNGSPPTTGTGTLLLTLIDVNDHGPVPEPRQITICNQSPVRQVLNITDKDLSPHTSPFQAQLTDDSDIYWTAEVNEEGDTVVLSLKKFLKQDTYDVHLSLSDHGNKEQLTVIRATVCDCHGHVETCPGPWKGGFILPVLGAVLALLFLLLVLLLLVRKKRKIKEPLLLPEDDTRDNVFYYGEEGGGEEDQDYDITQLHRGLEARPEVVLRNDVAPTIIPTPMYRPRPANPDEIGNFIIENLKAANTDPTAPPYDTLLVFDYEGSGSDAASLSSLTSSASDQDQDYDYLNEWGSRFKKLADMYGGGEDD

[3] = molecular target: T1, cynomolgus monkey P-cadherin ECD; test: SPR Biacore pH 7.4, average
[4] = molecular target: T1, cynomolgus monkey P-cadherin ECD; test: SPR Biacore pH 7.4
[5] = molecular target: T2, human P-cadherin expressed on the cell …; test: cell-based or functional assay; remark: listed apart in the source

Row | Binder | Kd [1] | T cell Cytotoxicity [2] | further results
1 | LP-DART #3 (bispecific antibody, also called P-cadherin LP-DART construct #3 (P-CAD 35, CD3-2)) chain 1: QAVVTQEPSLTVSPGGTVTLTCRSSTGAVTTSNYANWVQQKPGQAPRGLIGGTNKRAPWTPARFSGSLLGGKAALTITGAQAEDEADYYCALWYSNLWVFGGGTKLTVLGGGGSGGGGEVQLVQSGAEVKKPGASVKVSCKASGYTFTSYGISWVRQAPGQGLEWMGWISAYNGNTNYAQKLQGRVTMTTDTSTSTAYMELRSLRSDDTAVYYCATIDTASAFDIWGQGTMVTVSSGEPKSSDKTHTCPPCPAPEAAGAPSVFLFPPKPKDTLMISRTPEVTCVVVDVSHEDPEVKFNWYVDGVEVHNAKTKPREEQYNSTYRVVSVLTVLHQDWLNGKEYKCKVSNKALPAPIEKTISKAKGQPREPQVCTLPPSREEMTKNQVSLWCLVKGFYPSDIAVEWESNGQPENNYKTTPPVLDSDGSFFLYSKLTVDKSRWQQGNVFSCSVMHEALHNHYTQKSLSLSPG chain 2: QSVLTQPPSVSAAPGQKVTISCSGSSSNIGNNYVSWYQQLPGTAPKLLIYDNNKRPSGIPDRFSGSKSGTSATLGITGLQTGDEADYYCGTWDSSLSAVVFGGGTKLTVLGGGSGGGGEVQLVESGGGLVQPGGSLRLSCAASGFTFNTYAMNWVRQAPGKGLEWVARIRSKYNNYATYYADSVKDRFTISRDDSKNSLYLQMNSLKTEDTAVYYCVRHGNFGNSYVSWFAYWGQGTLVTVSSGEPKSSDKTHTCPPCPAPEAAGAPSVFLFPPKPKDTLMISRTPEVTCVVVDVSHEDPEVKFNWYVDGVEVHNAKTKPREEQYNSTYRVVSVLTVLHQDWLNGKEYKCKVSNKALPAPIEKTISKAKGQPREPQVYTLPPCREEMTKNQVSLSCAVKGFYPSDIAVEWESNGQPENNYKTTPPVLDSDGSFFLVSKLTVDKSRWQQGNVFSCSVMHEALHNHYTQKSLSLSPG | 85.7 nM | 1.6 nM | –
2 | 153 MP3 C-terminal DART (bispecific antibody, also called C-terminal MP3-DART P-CAD153 VH and VL) chain 1: DKTHTCPPCPAPEAAGAPSVFLFPPKPKDTLMISRTPEVTCVVVDVSHEDPEVKFNWYVDGVEVHNAKTKPREEQYNSTYRVVSVLTVLHQDWLNGKEYKCKVSNKALPAPIEKTISKAKGQPREPQVYTLPPSREEMTKNQVSLWCLVKGFYPSDIAVEWESNGQPENNYKTTPPVLDSDGSFFLYSKLTVDKSRWQQGNVFSCSVMHEALHNHYTQKSLSLSPGKAPSSSPMEQSVLTQPPSVSAAPGQKVTISCSGSSSNIGNNYVSWYQQLPGTAPKLLIYDNNKRPSGIPDRFSGSKSGTSATLGITGLQTGDEADYYCGTWDSSLSGVVFGGGTKLTVLGGGGSGGGGEVQLVESGGGLVQPGGSLRLSCAASGFTFSTYAMNWVRQAPGKGLEWVGRIRSKYNNYATYYADSVKGRFTISRDDSKNSLYLQMNSLKTEDTAVYYCVRHGNFGNSYVSWFAYWGQGTLVTVSSGVEPKSC chain 2: QAVVTQEPSLTVSPGGTVTLTCRSSTGAVTTSNYANWVQQKPGQAPRGLIGGTNKRAPWTPARFSGSLLGGKAALTITGAQAEDEADYYCALWYSNLWVFGGGTKLTVLGGGGSGGGGEVQLVQSGAEVKKPGASVKVSCKASGYTFTSYGISWVRQAPGQGLEWMGWISAYNGNTNYAQKLQGRVTMTTDTSTSTAYMELRSLRSDDTAVYYCATIDTANAFGIWGQGTMVTVSSGFNRGEC chain 3: DKTHTCPPCPAPEAAGAPSVFLFPPKPKDTLMISRTPEVTCVVVDVSHEDPEVKFNWYVDGVEVHNAKTKPREEQYNSTYRVVSVLTVLHQDWLNGKEYKCKVSNKALPAPIEKTISKAKGQPREPQVYTLPPSREEMTKNQVSLSCAVKGFYPSDIAVEWESNGQPENNYKTTPPVLDSDGSFFLVSKLTVDKSRWQQGNVFSCSVMHEALHNRYTQKSLSLSPGK | – | – | Kd [3]: 1.84 nM; Kd [4]: 1.56 nM and 2.11 nM; koff [4]: 0.000106 s⁻¹ and 0.000179 s⁻¹; kon [4]: 68000 M⁻¹ s⁻¹ and 84600 M⁻¹ s⁻¹; t½ [4]: 1.71 h and 1.01 h
3 | 35 LP-DART (bispecific antibody) chain 1: QSVLTQPPSVSAAPGQKVTISCSGSSSNIGNNYVSWYQQLPGTAPKLLIYDNNKRPSGIPDRFSGSKSGTSATLGITGLQTGDEADYYCGTWDSSLSAVVFGGGTKLTVLGGGSGGGGEVQLVESGGGLVQPGGSLRLSCAASGFTFSTYAMNWVRQAPGKGLEWVGRIRSKYNNYATYYADSVKGRFTISRDDSKNSLYLQMNSLKTEDTAVYYCVRHGNFGNSYVSWFAYWGQGTLVTVSSGCPPCPAPEAAGAPSVFLFPPKPKDTLMISRTPEVTCVVVDVSHEDPEVKFNWYVDGVEVHNAKTKPREEQYNSTYRVVSVLTVLHQDWLNGKEYKCKVSNKALPAPIEKTISKAKGQPREPQVCTLPPSREEMTKNQVSLWCLVKGFYPSDIAVEWESNGQPENNYKTTPPVLDSDGSFFLYSKLTVDKSRWQQGNVFSCSVMHEALHNHYTQKSLSLSPG chain 2: QAVVTQEPSLTVSPGGTVTLTCRSSTGAVTTSNYANWVQQKPGQAPRGLIGGTNKRAPWTPARFSGSLLGGKAALTITGAQAEDEADYYCALWYSNLWVFGGGTKLTVLGGGGSGGGGEVQLVQSGAEVKKPGASVKVSCKASGYTFTSYGISWVRQAPGQGLEWMGWISAYNGNTNYAQKLQGRVTMTTDTSTSTAYMELRSLRSDDTAVYYCATIDTASAFDIWGQGTMVTVSSGCPPCPAPEAAGAPSVFLFPPKPKDTLMISRTPEVTCVVVDVSHEDPEVKFNWYVDGVEVHNAKTKPREEQYNSTYRVVSVLTVLHQDWLNGKEYKCKVSNKALPAPIEKTISKAKGQPREPQVYTLPPCREEMTKNQVSLSCAVKGFYPSDIAVEWESNGQPENNYKTTPPVLDSDGSFFLVSKLTVDKSRWQQGNVFSCSVMHEALHNHYTQKSLSLSPG | – | – | DU145 CTL (LDH) EC50 [5]: 0.0073 nM; HCT116 CTL (Luc) EC50 [5]: 0.107 nM
4 | LP-DART #1 (bispecific antibody, also called P-cadherin LP-DART construct #1 (P-CAD 35, CD3-2)) chain 1: QAVVTQEPSLTVSPGGTVTLTCRSSTGAVTTSNYANWVQQKPGQAPRGLIGGTNKRAPWTPARFSGSLLGGKAALTITGAQAEDEADYYCALWYSNLWVFGGGTKLTVLGGGGSGGGGEVQLVQSGAEVKKPGASVKVSCKASGYTFTSYGISWVRQAPGQGLEWMGWISAYNGNTNYAQKLQGRVTMTTDTSTSTAYMELRSLRSDDTAVYYCATIDTASAFDIWGQGTMVTVSSGCPPCPAPEAAGAPSVFLFPPKPKDTLMISRTPEVTCVVVDVSHEDPEVKFNWYVDGVEVHNAKTKPREEQYNSTYRVVSVLTVLHQDWLNGKEYKCKVSNKALPAPIEKTISKAKGQPREPQVCTLPPSREEMTKNQVSLWCLVKGFYPSDIAVEWESNGQPENNYKTTPPVLDSDGSFFLYSKLTVDKSRWQQGNVFSCSVMHEALHNHYTQKSLSLSPG chain 2: QSVLTQPPSVSAAPGQKVTISCSGSSSNIGNNYVSWYQQLPGTAPKLLIYDNNKRPSGIPDRFSGSKSGTSATLGITGLQTGDEADYYCGTWDSSLSAVVFGGGTKLTVLGGGSGGGGEVQLVESGGGLVQPGGSLRLSCAASGFTFNTYAMNWVRQAPGKGLEWVARIRSKYNNYATYYADSVKDRFTISRDDSKNSLYLQMNSLKTEDTAVYYCVRHGNFGNSYVSWFAYWGQGTLVTVSSGCPPCPAPEAAGAPSVFLFPPKPKDTLMISRTPEVTCVVVDVSHEDPEVKFNWYVDGVEVHNAKTKPREEQYNSTYRVVSVLTVLHQDWLNGKEYKCKVSNKALPAPIEKTISKAKGQPREPQVYTLPPCREEMTKNQVSLSCAVKGFYPSDIAVEWESNGQPENNYKTTPPVLDSDGSFFLVSKLTVDKSRWQQGNVFSCSVMHEALHNHYTQKSLSLSPG | 108 nM | 0.79 nM | –
5 | LP-DART #8 (bispecific antibody, also called P-cadherin LP-DART construct #8 (P-CAD 35, CD3-2)) chain 1: QAVVTQEPSLTVSPGGTVTLTCRSSTGAVTTSNYANWVQQKPGQAPRGLIGGTNKRAPWTPARFSGSLLGGKAALTITGAQAEDEADYYCALWYSNLWVFGGGTKLTVLGGGGSGGGGEVQLVQSGAEVKKPGASVKVSCKASGYTFTSYGISWVRQAPGQGLEWMGWISAYNGNTNYAQKLQGRVTMTTDTSTSTAYMELRSLRSDDTAVYYCATIDTASAFDIWGQGTMVTVSSGGTGGGEPKSSDKTHTCPPCPAPEAAGAPSVFLFPPKPKDTLMISRTPEVTCVVVDVSHEDPEVKFNWYVDGVEVHNAKTKPREEQYNSTYRVVSVLTVLHQDWLNGKEYKCKVSNKALPAPIEKTISKAKGQPREPQVYTLPPCREEMTKNQVSLSCAVKGFYPSDIAVEWESNGQPENNYKTTPPVLDSDGSFFLVSKLTVDKSRWQQGNVFSCSVMHEALHNHYTQKSLSLSPG chain 2: QSVLTQPPSVSAAPGQKVTISCSGSSSNIGNNYVSWYQQLPGTAPKLLIYDNNKRPSGIPDRFSGSKSGTSATLGITGLQTGDEADYYCGTWDSSLSAVVFGGGTKLTVLGGGSGGGGEVQLVESGGGLVQPGGSLRLSCAASGFTFNTYAMNWVRQAPGKGLEWVARIRSKYNNYATYYADSVKDRFTISRDDSKNSLYLQMNSLKTEDTAVYYCVRHGNFGNSYVSWFAYWGQGTLVTVSSGGTGGGEPKSSDKTHTCPPCPAPEAAGAPSVFLFPPKPKDTLMISRTPEVTCVVVDVSHEDPEVKFNWYVDGVEVHNAKTKPREEQYNSTYRVVSVLTVLHQDWLNGKEYKCKVSNKALPAPIEKTISKAKGQPREPQVCTLPPSREEMTKNQVSLWCLVKGFYPSDIAVEWESNGQPENNYKTTPPVLDSDGSFFLYSKLTVDKSRWQQGNVFSCSVMHEALHNHYTQKSLSLSPG | 104 nM | 2.27 nM | –
6 | LP-DART #2 (bispecific antibody, also called P-cadherin LP-DART construct #2 (P-CAD 35, CD3-2)) chain 1: QAVVTQEPSLTVSPGGTVTLTCRSSTGAVTTSNYANWVQQKPGQAPRGLIGGTNKRAPWTPARFSGSLLGGKAALTITGAQAEDEADYYCALWYSNLWVFGGGTKLTVLGGGGSGGGGEVQLVQSGAEVKKPGASVKVSCKASGYTFTSYGISWVRQAPGQGLEWMGWISAYNGNTNYAQKLQGRVTMTTDTSTSTAYMELRSLRSDDTAVYYCATIDTASAFDIWGQGTMVTVSSGGTGGCPPCPAPEAAGAPSVFLFPPKPKDTLMISRTPEVTCVVVDVSHEDPEVKFNWYVDGVEVHNAKTKPREEQYNSTYRVVSVLTVLHQDWLNGKEYKCKVSNKALPAPIEKTISKAKGQPREPQVCTLPPSREEMTKNQVSLWCLVKGFYPSDIAVEWESNGQPENNYKTTPPVLDSDGSFFLYSKLTVDKSRWQQGNVFSCSVMHEALHNHYTQKSLSLSPG chain 2: QSVLTQPPSVSAAPGQKVTISCSGSSSNIGNNYVSWYQQLPGTAPKLLIYDNNKRPSGIPDRFSGSKSGTSATLGITGLQTGDEADYYCGTWDSSLSAVVFGGGTKLTVLGGGSGGGGEVQLVESGGGLVQPGGSLRLSCAASGFTFNTYAMNWVRQAPGKGLEWVARIRSKYNNYATYYADSVKDRFTISRDDSKNSLYLQMNSLKTEDTAVYYCVRHGNFGNSYVSWFAYWGQGTLVTVSSGGTGGCPPCPAPEAAGAPSVFLFPPKPKDTLMISRTPEVTCVVVDVSHEDPEVKFNWYVDGVEVHNAKTKPREEQYNSTYRVVSVLTVLHQDWLNGKEYKCKVSNKALPAPIEKTISKAKGQPREPQVYTLPPCREEMTKNQVSLSCAVKGFYPSDIAVEWESNGQPENNYKTTPPVLDSDGSFFLVSKLTVDKSRWQQGNVFSCSVMHEALHNHYTQKSLSLSPG | 73.5 nM | 0.92 nM | –
